Data as given in US20190055314A1 (ADAGENE, published 2019).
Where two headings read alike, the source gives them in different places.

How the values were obtained:
[1] = target: T1, full-length human CD137 on the cell surface (human, UniProt Q07011 18-255); experiment: flow cytometry, yeast display [Cont.]
T1 construct: also called Human WT

[2] = target: T2, Hu_CRD3-CRD4 (human, UniProt Q07011 87-159, limits assumed); experiment: flow cytometry, yeast display [Cont.]
T2 construct: also called two CRD units (CRD3-CRD4) of human CD137

[3] = target: T3, Hu_CRD1-CRD2-CRD3 (human, UniProt Q07011 24-118, limits assumed); experiment: flow cytometry, yeast display [Cont.]
T3 construct: also called three CRD units (CRD1-CRD2-CRD3) of human CD137

[4] = target: T4, Hu_CRD2-CRD3-CRD4 (human, UniProt Q07011 46-159, limits assumed); experiment: flow cytometry, yeast display [Cont.]
T4 construct: also called three CRD units (CRD2-CRD3-CRD4) of human CD137

[5] = target: T5, Hu_CRD2-CRD3 (human, UniProt Q07011 46-118, limits assumed); experiment: flow cytometry, yeast display [Cont.]
T5 construct: also called two CRD units (CRD2-CRD3) of human CD137

[6] = target: T6, Hu_CRD3 (human, limits assumed); experiment: flow cytometry, yeast display [Cont.]
T6 construct: also called human CD137 CRD3
T6 chain: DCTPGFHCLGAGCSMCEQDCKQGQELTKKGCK

[7] = target: T7, Hu_CRD1-CRD2 (human, UniProt Q07011 24-86, limits assumed); experiment: flow cytometry, yeast display [Cont.]
T7 construct: also called two CRD units (CRD1-CRD2) of human CD137

[8] = target: T8, Hu_CRD4 (human, UniProt Q07011 119-159, limits assumed); experiment: flow cytometry, yeast display [Cont.]
T8 construct: also called human CD137 CRD4
T8 chain: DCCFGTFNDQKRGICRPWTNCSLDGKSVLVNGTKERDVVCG

[9] = target: T9, Hu_CRD2 (human, UniProt Q07011 46-86, limits assumed); experiment: flow cytometry, yeast display [Cont.]
T9 construct: also called human CD137 CRD2
T9 chain: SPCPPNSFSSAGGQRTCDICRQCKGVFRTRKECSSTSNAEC

[10] = target: T10, full-length mouse CD137 on the cell surface (mouse, UniProt P20334 24-178); experiment: flow cytometry, yeast display [Cont.]
T10 sequence: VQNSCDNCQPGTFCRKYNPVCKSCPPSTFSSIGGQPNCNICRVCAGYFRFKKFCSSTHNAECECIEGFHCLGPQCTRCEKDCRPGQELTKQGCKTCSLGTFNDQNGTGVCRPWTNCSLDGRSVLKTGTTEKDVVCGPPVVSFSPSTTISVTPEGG

[11] = target: T1, full-length human CD137 on the cell …; experiment: flow cytometry, yeast display [Cont.]; remark: listed apart in the source
[12] = target: T10, full-length mouse CD137 on the cell …; experiment: flow cytometry, HEK293F cells expressing CD137 or mutant
[13] = target: T1, full-length human CD137 on the cell …; experiment: as above
[14] = target: T11, mouse CD137 protein (Biacore) (mouse, UniProt P20334 24-178, limits assumed); experiment: SPR Biacore
T11 construct: Construct used as SPR analyte not described
T11 sequence: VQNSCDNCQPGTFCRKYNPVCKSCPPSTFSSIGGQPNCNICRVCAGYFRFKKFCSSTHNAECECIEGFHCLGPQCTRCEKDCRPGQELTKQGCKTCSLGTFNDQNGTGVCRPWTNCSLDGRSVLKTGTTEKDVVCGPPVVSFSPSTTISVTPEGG

[15] = target: T12, mouse CD137 fused with human FC fragment (mouse, UniProt P20334 24-178, limits assumed); experiment: ELISA, coated CD137-Fc
T12 construct: also called mouse CD137-Fc; not shown: human Fc fragment
T12 sequence: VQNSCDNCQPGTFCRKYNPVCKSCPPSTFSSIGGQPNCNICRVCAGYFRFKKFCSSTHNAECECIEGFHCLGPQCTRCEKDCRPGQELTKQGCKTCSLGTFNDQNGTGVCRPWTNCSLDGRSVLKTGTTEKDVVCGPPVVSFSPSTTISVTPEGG

[16] = target: T5, Hu_CRD2-CRD3; experiment: flow cytometry, yeast display [Cont.]; remark: listed apart in the source
[17] = target: T6, Hu_CRD3; experiment: flow cytometry, yeast display [Cont.]
[18] = target: T7, Hu_CRD1-CRD2; experiment: flow cytometry, yeast display [Cont.]; remark: listed apart in the source
[19] = target: T8, Hu_CRD4; experiment: flow cytometry, yeast display [Cont.]
[20] = target: T13, human CD137-His6 (Sino Biological #10041-H08H) (human, UniProt Q07011 24-186); experiment: SPR Biacore, IgG captured
T13 construct: Bought; also called human CD137 protein; not shown: His6 tag

[21] = target: T14, Hu_FH92AA (human, UniProt Q07011 18-255); experiment: flow cytometry, HEK293F cells expressing CD137 or mutant [Cont.]
T14 construct: On HEK293F

[22] = target: T15, Hu_FSS53AAA (human, UniProt Q07011 18-255); experiment: as above
T15 construct: On HEK293F
T15 chain: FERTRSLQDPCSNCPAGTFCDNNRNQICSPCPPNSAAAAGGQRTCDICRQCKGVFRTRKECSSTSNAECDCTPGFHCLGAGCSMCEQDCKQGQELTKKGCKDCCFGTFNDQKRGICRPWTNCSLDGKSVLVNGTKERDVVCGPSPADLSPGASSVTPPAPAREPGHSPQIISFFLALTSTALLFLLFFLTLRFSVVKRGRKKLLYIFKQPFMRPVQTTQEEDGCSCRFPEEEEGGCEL

[23] = target: T16, Hu_GTF34AAA (human, UniProt Q07011 18-255); experiment: as above
T16 construct: On HEK293F; also called GFT34AAA
T16 chain: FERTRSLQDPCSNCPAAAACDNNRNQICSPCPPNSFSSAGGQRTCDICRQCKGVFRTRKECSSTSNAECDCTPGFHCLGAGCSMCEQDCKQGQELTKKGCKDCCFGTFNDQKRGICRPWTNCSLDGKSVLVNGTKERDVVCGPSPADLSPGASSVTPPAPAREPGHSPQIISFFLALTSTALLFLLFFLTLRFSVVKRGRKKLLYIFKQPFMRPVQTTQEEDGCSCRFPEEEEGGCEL

[24] = target: T1, full-length human CD137 on the cell …; experiment: cell-based or functional assay
[25] = target: T2, Hu_CRD3-CRD4; experiment: flow cytometry, yeast display [Cont.]; remark: listed apart in the source
[26] = target: T3, Hu_CRD1-CRD2-CRD3; experiment: flow cytometry, yeast display [Cont.]; remark: listed apart in the source
[27] = target: T4, Hu_CRD2-CRD3-CRD4; experiment: flow cytometry, yeast display [Cont.]; remark: listed apart in the source
[28] = target: T17, Hu_FN125AA (human, UniProt Q07011 18-255); experiment: flow cytometry, HEK293F cells expressing CD137 or mutant [Cont.]
T17 construct: On HEK293F

[29] = target: T18, Hu_GT150AA (human, UniProt Q07011 18-255); experiment: as above
T18 construct: On HEK293F

[30] = target: T19, Hu_PW135AA (human, UniProt Q07011 18-255); experiment: as above
T19 construct: On HEK293F

[31] = target: T20, Hu_EL111AA (human, UniProt Q07011 18-255); experiment: flow cytometry, HEK293F
T20 construct: On HEK293F

[32] = target: T21, Hu_GQ109AA (human, UniProt Q07011 18-255); experiment: flow cytometry, HEK293F
T21 construct: On HEK293F

[33] = target: T22, Hu_TN137AA (human, UniProt Q07011 18-255); experiment: flow cytometry, HEK293F
T22 construct: On HEK293F

[34] = target: T1, full-length human CD137 on the cell …; experiment: flow cytometry, HEK293F
[35] = target: T23, rat CD137 on the cell surface (rat, UniProt Q4W8J3 24-258); experiment: flow cytometry, HEK293F cells expressing CD137
T23 sequence: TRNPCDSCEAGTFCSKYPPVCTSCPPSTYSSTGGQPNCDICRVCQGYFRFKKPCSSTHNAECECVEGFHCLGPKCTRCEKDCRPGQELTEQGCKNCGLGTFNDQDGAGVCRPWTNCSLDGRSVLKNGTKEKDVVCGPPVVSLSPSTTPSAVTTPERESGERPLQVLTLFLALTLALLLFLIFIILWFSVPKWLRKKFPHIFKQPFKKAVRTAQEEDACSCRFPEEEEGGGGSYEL

B1: mouse CD137L (ligand, UniProt P41274 104-309, looked up)
chain: RTEPRPALTITTSPNLGTRENNADQVTPVSHIGCPNTTQQGSPVFAKLLAKNQASLCNTTLNWHSQDGAGSSYLSQGLRYEEDKKELVVDSPGLYYVFLELKLSPTFTNTGHKVQGWVSLVLQAKPQVDDFDNLALTVELFPCSMENKLVDRSWSQLLLLKAGHRLSVGLRAYLHGAQDAYRDWELSYPNTTSFGLFLVKPDNPWE
[1]
  binding result: no binding
[2]
  % in upper right quadrant: 0.24%
  Mean: 10000
[3]
  % in upper right quadrant: 0.19%
  Mean: 4700
[4]
  % in upper right quadrant: 0.026%
  Mean: 3260
[5]
  % in upper right quadrant: 0.19%
  Mean: 15900
[6]
  % in upper right quadrant: 0.2%
  Mean: 46000
[7]
  % in upper right quadrant: 0.16%
  Mean: 43800
[8]
  % in upper right quadrant: 0.15%
  Mean: 9270

B2: AC1121 (antibody, V domains shown)
VH: QVQLQQWGAGLLKPSETLSLTCAVYGGSFSGYYWSWIRQSPEKGLEWIGEINHGGYVTYNPSLESRVTISVDTSKNQFSLKLSSVTAADTAVYYCARDYGPGNYDWYFDLWGRGTLVTVSS
VL: EIVLTQSPATLSLSPGERATLSCRASQSVSSYLAWYQQKPGQAPRLLIYDASNRATGIPARFSGSGSGTDFTLTISSLEPEDFAVYYCQQRSNWPPALTFGGGTKVEIK
[9]
  % in upper right quadrant: 0.26%
  Mean: 4050
[10]
  % in upper right quadrant: 0.4%
  Mean: 13100
[11]
  % in upper right quadrant: 32.2%
  Mean: 93600
[12]
  binding result: no binding (tested: 100 nM (as in Example 5))
[13]
  % in upper right quadrant: 27.8%
[14]
  binding result: no binding
[15]
  binding result: no binding
[16]
  % in upper right quadrant: 0.12%
  Mean: 12800
[17]
  % in upper right quadrant: 0.22%
  Mean: 13900
[18]
  % in upper right quadrant: 51.4%
  Mean: 26000
[19]
  % in upper right quadrant: 0.15%
  Mean: 6770
[20]
  Kd: 9.6 nM
[21]
  binding result: binds
[22]
  Mean: 16700
[23]
  Mean: 8620
[24]
  NFκB reporter: EC50 (nM) With Cross-Linker: 2.51 nM
  NFκB reporter: EC50 (nM) Without Cross-Linker: 1.27 nM
[25]
  % in upper right quadrant: 0.18%
  Mean: 3460
[26]
  % in upper right quadrant: 57.2%
  Mean: 46500
[27]
  % in upper right quadrant: 0.42%
  Mean: 29500
[28]
  Mean: 23100
[29]
  Mean: 21300
[30]
  Mean: 53900
[31]
  binding result: binds
[32]
  binding result: binds
[33]
  binding result: binds
[34]
  Kd: 3.3 nM
[35]
  binding result: no binding (tested: 100 nM (text paragraph 220))
